Measurements from patent publication WO2010007376A2 (dated 2010).
One block for each binder: values may come before it.

How the values were obtained:
[1] = target: T1, recombinant human CD28/Fc Chimera (R&D Systems, Abingdon, UK) (human, UniProt P10747 19-152); assay: BIAcore, CM5 chip coated with 12500 RU of CD28-Fc; dAb at 16.6 uM
T1 construct: Bought reagent; Fc part of the bought chimera not given

[2] = target: T1, recombinant human CD28/Fc Chimera (R&D …); assay: BIAcore, CM5 chip coated with 12500 RU of CD28-Fc; dAb at 13.8 uM
[3] = target: T1, recombinant human CD28/Fc Chimera (R&D …); assay: BIAcore, CM5 chip coated with 12500 RU of CD28-Fc; dAb concentration not given
[4] = target: T1, recombinant human CD28/Fc Chimera (R&D …); assay: BIAcore, CM5 chip coated with 12500 RU of CD28-Fc; dAb at 19.4 uM
[5] = target: T1, recombinant human CD28/Fc Chimera (R&D …); assay: BIAcore, CM5 chip coated with 12500 RU of CD28-Fc; dAb at 57.5 uM
[6] = target: T1, recombinant human CD28/Fc Chimera (R&D …); assay: BIAcore, CM5 chip coated with 12500 RU of CD28-Fc; dAb at 42.3 uM

B1: DOM21-28 (other)
VL: DIQMTQSPSSLSASVGDRVTITCRASQSISHSLVWYQQKPGKAPKLLIYWASLLQSGVPSRFSGSGSGTDFTLTISSLQPEDFATYYCQQGMTTPFTFGQGTKVEIKR
notes: Human VK antibody single variable domain (dAb), expressed from pDOM5 and purified
- binding result [1]: binds

B2: DOM21-18 (other)
VL: DIQMTQSPSSLSASVGDRVTITCRASQYIGTSLNWYQQKPGKAPKLLTYQASLLQSGVPSRFSGSGSGTDFTLTISSLQPEDFATYYCQQLALRPMTFGQGTKVEIKR
notes: Human VK (DPK9/JK1) antibody single variable domain (dAb), expressed from pDOM5 and purified
- binding result [2]: binds

B3: DOM21-38 (other)
VH: EVQLLESGGGLVQPGGSLRLSCAASGFTFILYDMQWVRQAPGKGLEWVSRISANGHDTYYADSVKGRFTISRDNSKNTLYLQMNSLRAEDTAVYYCAKGPHYLFDYWGQGTLVTVSS
notes: Human VH antibody single variable domain (dAb), expressed from pDOM5 and purified
- binding result [3]: binds

The next lines start with the values.

- binding result [4]: binds
B4: DOM21-22 (other)
VH: EVQLLESGGGLVQPGGSLRLSCAASGFTFELYQMGWVRQAPGKGLEWVSTIMPSGNLTYYADSVKGRFTISRDNSKNTLYLQMNSLRAEDTAVYYCAKMWSLNLGFHAAFDYWGQGTLVTVSS
notes: as for B3

- binding result [5]: binds
B5: DOM21-20 (other)
VH: EVQLLESGGGLVQPGGSLRLSCAASGFTFPAYSMIWVRQAPGKGLEWVSTISPLGYSTYYADSVKGRFTISRDNSKNTLYLQMNSLRAEDTAVYYCAEQTAYLNRATEHFDYWGQGTLVTVSS
notes: as for B3

- binding result [6]: binds
B6: DOM21-4 (other)
VH: EVQLLESGGGLVQPGGSLRLSCAASGFTFSRYHMAWVRQAPGKGLEWVSVIDSLGLQTYYADSVKGRFTISRDNSKNTLYLQMNSLRAEDTAVYYCAEYGGAFDYWGQGTLVTVSS
notes: Human VH antibody single variable domain (dAb) from a DP47/JH4b library, expressed from pDOM5 and purified

- binding result [3]: binds
B7: DOM21-44 (other)
VH: EVQLLESGGGLVQPGGSLRLSCAASGFTFARYTMVWVRQAPGKGLEWVSAIHFDGRTTYYADSVKGRFTISRDNSKNTLYLQMNSLRAEDTAVYYCAKNEWASLKHFDYWGQGTLVTVSS
notes: as for B3
